This note sets out measurements from article doi:10.1101/2024.09.03.610704.

In assay [1] the target is mitochondrial respiratory complex IV monomer (Chlamydomonas reinhardtii). Briefly: cryo-EM structure.
Assay [2] deals with mitochondrial respiratory complex III dimer (Chlamydomonas reinhardtii). In words: cryo-EM structure.

“cytochrome c (from UniProt P15451 1-112) (natural protein)”: the stoichiometry N (cyt. c per complex IV monomer) in assay [1] worked out at 1. The substance further displayed a stoichiometry N (cyt. c per complex III dimer) in assay [2] of 2.
